Experimental data taken from paper doi:10.1101/767376, “Strategies to improve scFvs as crystallization chaperones suggested by analysis of a complex with the human PHD-bromodomain SP140” (bioRxiv, 2019).

Target: T1, SP140 PHD-bromodomain (construct SP140A-c055) (Homo sapiens, UniProt Q13342)
T1 construct: SP140, human, nuclear leukocyte-specific protein, amino acids 688-862 (PHD and bromodomain); Biotinylated recombinant SP140 was the target in the phage selection; Details are in supplementary methods S1; source: recombinant, purified
T1 sequence (Q13342 688-862): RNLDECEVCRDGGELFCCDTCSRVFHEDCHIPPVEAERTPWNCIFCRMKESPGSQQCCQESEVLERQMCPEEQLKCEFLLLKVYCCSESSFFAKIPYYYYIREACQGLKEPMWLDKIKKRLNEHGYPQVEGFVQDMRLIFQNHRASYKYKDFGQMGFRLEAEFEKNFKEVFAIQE
Assay: SPR; format and conditions in Supplementary Method S3 and Figure S1 (not shown)

B1: G-SP140-8 scFv (construct YYSP140A-c009) (scFv, V domains shown)
VH: EVQLLESGGGLVQPGGSLRLSCAASGFTFYGSGMGWVRQAPGKGLEWVSSIYSGSGSTYYADSVKGRFTISRDNSKNTLYLQMNSLRAEDTAVYYCARTSIYYYYMDYWGQGTLVTVSS
VL: DIQMTQSPSSLSASVGDRVTITCRASQSISSYLNWYQQKPGKAPKLLIYAASSLQSGVPSRFSGSGSGTDFTLTISSLQPEDFATYYCQQSSSLFTFGQGTKLEIK
notes: scFv (VH and VL joined by a linker) selected by phage display from the human synthetic library SciLifeLib; see Supplementary Method S3; not shown: MBP, N-terminal, cleaved; His6, N-terminal, cleaved
For B1, the Kd was about 6 nM.
